Tests used:
murine CD22 = biological target: T1, murine CD22 (murine, UniProt P35329 22-708); test: not described (told as the reason for the choice of monkeys)
T1 sequence (looked up): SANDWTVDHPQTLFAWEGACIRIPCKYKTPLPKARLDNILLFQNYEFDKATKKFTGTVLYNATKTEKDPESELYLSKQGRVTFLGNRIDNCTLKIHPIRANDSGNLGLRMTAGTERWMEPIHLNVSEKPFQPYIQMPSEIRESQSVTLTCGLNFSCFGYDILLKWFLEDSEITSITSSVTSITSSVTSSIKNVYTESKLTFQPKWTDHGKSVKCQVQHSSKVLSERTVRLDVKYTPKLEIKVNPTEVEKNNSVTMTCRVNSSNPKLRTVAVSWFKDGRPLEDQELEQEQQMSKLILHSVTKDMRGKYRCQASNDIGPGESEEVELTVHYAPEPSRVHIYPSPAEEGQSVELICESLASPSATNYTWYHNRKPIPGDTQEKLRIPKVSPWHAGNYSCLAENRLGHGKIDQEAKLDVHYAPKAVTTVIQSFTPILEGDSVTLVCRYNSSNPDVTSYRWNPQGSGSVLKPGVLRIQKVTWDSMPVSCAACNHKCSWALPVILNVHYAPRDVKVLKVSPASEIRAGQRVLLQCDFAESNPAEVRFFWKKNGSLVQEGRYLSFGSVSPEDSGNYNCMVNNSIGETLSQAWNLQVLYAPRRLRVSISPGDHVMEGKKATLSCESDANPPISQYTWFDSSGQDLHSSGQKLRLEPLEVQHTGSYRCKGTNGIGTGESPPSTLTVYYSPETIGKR

[1] = biological target: T2, CD22 (human, on CA46, Daudi and other human B-cell lines and on fresh patient leukemia cells) (human, UniProt P20273 20-847); test: competition of unlabelled IgG against 125I-labelled RFB4 IgG on Daudi cells, 4 C, gamma counting
T2 construct: whole, on cells; also called CD22 antigen
T2 sequence (looked up): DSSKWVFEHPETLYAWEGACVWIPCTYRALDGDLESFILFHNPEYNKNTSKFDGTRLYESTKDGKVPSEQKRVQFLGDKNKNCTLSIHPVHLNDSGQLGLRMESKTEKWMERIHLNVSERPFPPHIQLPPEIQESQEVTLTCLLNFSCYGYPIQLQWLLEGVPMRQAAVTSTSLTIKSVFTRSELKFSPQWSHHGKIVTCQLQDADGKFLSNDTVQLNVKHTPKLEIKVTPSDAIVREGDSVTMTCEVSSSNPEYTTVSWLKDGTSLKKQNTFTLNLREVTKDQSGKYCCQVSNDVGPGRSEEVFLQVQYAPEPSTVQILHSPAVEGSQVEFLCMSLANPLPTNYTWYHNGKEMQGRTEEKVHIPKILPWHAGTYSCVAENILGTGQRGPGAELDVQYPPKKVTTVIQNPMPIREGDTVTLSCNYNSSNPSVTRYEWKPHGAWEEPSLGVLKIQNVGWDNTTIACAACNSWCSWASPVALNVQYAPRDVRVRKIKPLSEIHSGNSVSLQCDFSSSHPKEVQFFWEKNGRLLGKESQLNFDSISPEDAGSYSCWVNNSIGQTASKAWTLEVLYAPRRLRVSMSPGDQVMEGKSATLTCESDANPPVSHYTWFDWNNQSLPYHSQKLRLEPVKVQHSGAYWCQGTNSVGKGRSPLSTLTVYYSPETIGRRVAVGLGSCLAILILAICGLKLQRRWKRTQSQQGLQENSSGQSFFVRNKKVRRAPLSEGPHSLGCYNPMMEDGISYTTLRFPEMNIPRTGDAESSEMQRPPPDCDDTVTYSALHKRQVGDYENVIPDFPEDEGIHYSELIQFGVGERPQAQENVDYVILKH

[2] = biological target: T2, CD22 (human, on CA46, Daudi and other …); test: competition of unlabelled IgG against 125I-labelled RFB4 IgG on CA46 cells, 4 C, gamma counting

B1: RFB4 IgG (antibody, V domains shown)
VH: EVQLVESGGGLVKPGGSLKLSCAASGFAFSIYDMSWVRQTPEKRLEWVAYISSGGGTTYYPDTVKGRFTISRDNAKNTLYLQMSSLKSEDTAMYYCARHSGYGSSYGVLFAYWGQGTLVTVSA
VL: DIQMTQTTSSLSASLGDRVTISCRASQDISNYLNWYQQKPDGTVKLLIYYTSILHSGVPSRFSGSGSGTDYSLTISNLEQEDFATYFCQQGNTLPWTFGGGTKLEIK
notes: also called RFB4 mAb; native RFB4 IgG
binding result (murine CD22): no binding
IC50 [1]: 10 nM
IC50 [2]: 4.5 nM

From patent publication US7541034 (US Dept. of Health and Human Services, dated 2009)
